The values that follow come from patent US20020086983A1 (THOMAS JEFFERSON UNIVERSITY, published 2002).

The target in test [1] is LexA-FLAME-1-FDH (residues 1-160) (human, UniProt O15519 1-160). Put plainly: yeast two-hybrid assay.
The next test deals with T1, T7-FLAME-2 (Homo sapiens (Human), UniProt O75618 1-318).
T1 sequence: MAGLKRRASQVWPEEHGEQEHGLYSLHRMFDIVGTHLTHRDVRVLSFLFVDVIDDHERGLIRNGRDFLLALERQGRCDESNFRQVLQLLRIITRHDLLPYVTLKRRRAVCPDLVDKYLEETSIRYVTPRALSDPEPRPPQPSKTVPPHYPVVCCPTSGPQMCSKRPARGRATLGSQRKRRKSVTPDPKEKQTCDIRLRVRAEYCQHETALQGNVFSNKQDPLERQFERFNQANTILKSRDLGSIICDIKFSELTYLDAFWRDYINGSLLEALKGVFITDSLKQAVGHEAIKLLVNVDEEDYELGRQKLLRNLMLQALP
The test is described as follows: co-immunoprecipitation from transfected 293T cells with Flag-tagged Fas, with or without T7-FADD.

Method for T7-FLAME-2: After 34-36 h, extracts were prepared and immunoprecipitated with a monoclonal antibody to the Flag-epitope. […] Cells were lysed in a lysis buffer (50 mM Tris, pH 7.6, 150 mM NaCl, 0.1 NP-40) and incubated with anti Flag-M5 monoclonal antibody (IBI Kodak). The immune complexes were precipitated with protein-A/G-Sepharose, washed and then eluted by boiling in SDS-sample buffer. The eluted proteins were resolved by SDS-PAGE and detected by Western analysis with a HRP-conjugated T7-antibody (Novagen). The samples were analyzed by SDS-PAGE and Western blotted with a horseradish peroxidase (HRP)-conjugated T7-antibody. All extracts were immunoblotted with anti-Flag and anti-T7 to verify expression of the encoded proteins.

B1: B42-FADD-DED (murine FADD-DED, residues 1-78) (other, UniProt Q61160 1-78, looked up, not shown: large carriers)
chain: MDPFLVLLHSLSGSLSGNDLMELKFLCRERVSKRKLERVQSGLDLFTVLLEQNDLERGHTGLLRELLASLRRHDLLQR
notes: range 1-78
As for B1, in test [1], the binding result was “binds”.

B2: Flag-tagged Fas (receptor, UniProt P25445 26-335, looked up, not shown: small tags and cut ends)
chain: QVTDINSKGLELRKTVTTVETQNLEGLHHDGQFCHKPCPPGERKARDCTVNGDEPDCVPCQEGKEYTDKAHFSSKCRRCRLCDEGHGLEVEINCTRTQNTKCRCKPNFFCNSTVCEHCDPCTKCEHGIIKECTLTSNTKCKEEGSRSNLGWLCLLLLPIPLIVWVKRKEVQKTCRKHRKENQGSHESPTLNPETVAINLSDVDLSKYITTIAGVMTLSQVKGFVRKNGVNEAKIDEIKNDNVQDTAEQKVQLLRNWHQLHGKKEAYDTLIKDLKKANLCTLAEKIQTIILKDITSDSENSNFRNEIQSLV
notes: Expressed in 293T cells and immunoprecipitated with the anti-Flag antibody
As to B2, the binding result with T7-FLAME-2 is listed as “no binding”.
